Test results from patent US20100260765A1 (AstraZeneca / MedImmune, published 2010).

B1: anti-KDR monoclonal antibody 27A3 (antibody, V domains shown)
VH: QLQLQESGPGLVKPSETLSLTCTVSGGSISSRSDYWGWIRQPPGKGLEWIGTIYYSGDTYYNPSLKSRVTISVDTSKNQFSLKLSSVTAADTAVYYCARQQLVLYYFDYWGQGTLVTVSS
VL: EIVLTQSPGTLSLSPGERATLSCRASQSVSSSYLAWYQQKPGQAPRLLIYATSNRATGIPDRFSGSGSGTDFTLTISRLEPEDFAVYYCQQHGSSPPLTFGGGTKVEIK
notes: Fully human mAb from XenoMouse (IgG2 or IgG4 strain); hybridoma supernatant
B2: anti-KDR monoclonal antibody 21H6 (antibody, V domains shown)
VH: QVQLVESGGGLVKPGGSLRLSCAASGFTFSDYYMSWIRQAPGKGLEWVSYISNSGITIYYADSVKGRFTISRDNAKNSLYLQMNSLRAGDTAVYYCAREEWYSSRWYRNFDYWGQGTLVTVSS
VL: DIQMTQFSSSLSASVGDRVTITCRASQSISRYLNWYQQKPGKAPKLLIYAASSLQSGVPSRFNGSGSGTDFTLTISSLQPEDFATYYCQQSYSAPLTFGGGTKVEIK
notes: Fully human mAb from XenoMouse; hybridoma supernatant
B3: anti-KDR monoclonal antibody 21A1 (antibody, V domains shown)
VH: B2 VH
VL: B2 VL
notes: as for B1
B4: anti-KDR monoclonal antibody 21H9 (antibody, V domains shown)
VH: QVPLVESGGGVVQPGRSLRLSCAASGFTFSSYGMHWVRQAPGKGLEWVAVIWYDGSNKYYADSVQGRFTISRDNSKNTLYLQMNSLRAEDTAVYYCARGVTMVRGLIIARYYYGLDVWGQGTTVTVSS
VL: DIVMTQTPLSSPVTFGQPASISCRSSQSLVHSDGNTYLSWLQQRPGQPPRLLIYKISNRFFGVPDRFSGSGAGTDFTLKISRVEAEDVGLYYCMQSTQFPLTFGGGTKVEIK
notes: as for B1
B5: anti-KDR monoclonal antibody 30F6 (antibody, V domains shown)
VH: QVQLVESGGGVVQPGRSLRLSCAASGFTFSTYGMHWVRQAPGKGLEWVAVIWYDGSNKYYADSVKGRFTISRDNSKNTLYLQMNSLRAEDTAVYYCACSYWNDDYYYGMDVWGQGTTVTVSS
VL: DIQMTQSPSSLSASVGDRVIITCRASQNISSYLIWYQQKPGKAPNLLIHTTSSLQRGVPSRFSGSGSGTDFTLTISSLQPEDFATYYCQQSYSAPLTFGGGTKVEIK
notes: as for B1
B6: anti-KDR monoclonal antibody 1G6 (antibody, V domains shown)
VH: EVQLLESGGGLVQPGGSLRLSCAASGFTFSSYAMSWVRQAPGKGLEWVSAISGGGGNTYYADSVKGRFTISRDNSKNTLYLQMNSLRAEDTAVYYCSKVATDYWGQGTLVTVSS
VL: QPVLTQSSSASASLGSSVKLTCTLSSGHSSYIIAWHQQQPGKAPRYLMKLEGSGSYNKGSGVPDRFSGSSSGADRYLTISNLQFEDEADYYCETWDSYTVVFGGGTKLTVL
notes: Fully human mAb from XenoMouse (IgG2 or IgG4 strain); tested here as hybridoma supernatant
B7: anti-KDR monoclonal antibody 24C9 (antibody, V domains shown)
VH: EVQLVESGGGLVKPGGSLRLSCAASGFTFSTYSMNWVRQAPGKGLEWVSFISGRSSYIYYADSVKGRFTISRDNAKNSLYLQMNSLRAEDTAVYYCSKDDWFEELWGQGTLVTVSS
VL: DIQMTQSPSSLSASVGDRVTITCRASQGIRNDLGWYQQKPGKAPKRLIYATFSLQSGVPSRFSGSGSGTEFTLTISSLQPEDFATYYCLQHNRYPWTFGQGTKVEIK
notes: as for B1
B8: anti-KDR monoclonal antibody 32C11 (antibody, V domains shown)
VH: EVQLLESGGTLVQPGGSLRLSCAASGFTFSNYAMSWVRQAPGKGLEWVSAISGRAGSTYYADSVKGRFTISRDNSKNTLFLQMNSLRAEDTAVYYCAKASGDDWGQGTLVTVSS
VL: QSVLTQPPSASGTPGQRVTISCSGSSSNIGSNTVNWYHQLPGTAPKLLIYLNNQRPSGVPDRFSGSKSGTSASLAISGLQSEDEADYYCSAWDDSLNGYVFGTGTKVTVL
notes: as for B1
B9: anti-KDR monoclonal antibody 29F7 (antibody, V domains shown)
VH: QVQLVQSGAEVKKPGASVKVSCKASGYTFTSYDINWVRQATGQGLEWMGWMNPNSGKTGYAQKFQGRVTMTRSTSISTAYMELSSLRSEDTAVYYCARGGYSNLGWFDPWGQGTLVTVSS
VL: DIQMTQSPSSVFASVGDRVTITCRASQGISTWLAWYQQKPGKAPKFLIYAASSLQSGVPSRFSGSGSGTDFTLTISSLQPDDFATYYCQQANNFPFTFGPGTKVDIK
notes: as for B1

The binders below were run against T1, b-KDRIg4-7-myc-his (UniProt P35968 328-764, prefix 'b-' not explained; captured on neutravidin-coated plates (presumably biotinylated, site not stated)) (assay: ELISA, b-KDRIg4-7-myc-his 1 ug/mL on neutravidin, hybridoma supernatant 1:5).
T1 construct: domain: Ig4-7; The text calls it 'a KDR antibody containing the Ig4-7 domain'; it is read as the KDR fragment; Purified on a nickel column; also called Ig4-7 domain of KDR; soluble KDR Ig4-7; not shown: myc-his tag of the pSecTag vector
T1 sequence (P35968 328-764): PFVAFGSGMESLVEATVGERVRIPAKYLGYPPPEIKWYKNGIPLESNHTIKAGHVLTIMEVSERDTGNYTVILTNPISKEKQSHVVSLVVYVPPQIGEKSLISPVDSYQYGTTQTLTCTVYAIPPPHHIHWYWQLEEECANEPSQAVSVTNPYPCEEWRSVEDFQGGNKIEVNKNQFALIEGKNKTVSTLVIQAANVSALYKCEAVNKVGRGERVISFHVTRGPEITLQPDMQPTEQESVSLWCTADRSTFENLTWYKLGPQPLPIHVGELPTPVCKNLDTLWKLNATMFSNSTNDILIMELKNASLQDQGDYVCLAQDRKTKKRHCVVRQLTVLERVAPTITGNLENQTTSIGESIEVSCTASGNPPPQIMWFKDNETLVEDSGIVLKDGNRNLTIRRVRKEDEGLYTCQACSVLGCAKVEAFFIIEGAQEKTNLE
Procedure: To screen by binding to the Ig4-7 domain of KDR, plates were first coated with neutravadin (Pierce) at 4 μg/mL and incubated overnight at 4° C. The plates were then blocked and subsequently incubated with b-KDRIg4-7-myc-his at 1 μg/mL for one hour at room temperature. Candidate hybridoma supernatants (at 1:5 dilution) were transferred to the plates and incubated for one hour at room temperature. The plates were then washed and incubated with goat anti-human IgG Fc POD (at 1:4000 dilution) for one hour at room temperature.

In order of falling “b-KDRIg4-7 OD(450 nm)” value:
1. B1  1.82 OD450
2. B3  1.27 OD450
3. B2  0.935 OD450

The binders below were run against T2, human KDR (VEGFR2) on cells (human, UniProt P35968 20-1356) (assay: FACS on HUVEC, hybridoma supernatant 1:50).
T2 construct: whole, on cells; also called native KDR on HUVEC; endogenously expressed KDR
T2 sequence (P35968 20-1356): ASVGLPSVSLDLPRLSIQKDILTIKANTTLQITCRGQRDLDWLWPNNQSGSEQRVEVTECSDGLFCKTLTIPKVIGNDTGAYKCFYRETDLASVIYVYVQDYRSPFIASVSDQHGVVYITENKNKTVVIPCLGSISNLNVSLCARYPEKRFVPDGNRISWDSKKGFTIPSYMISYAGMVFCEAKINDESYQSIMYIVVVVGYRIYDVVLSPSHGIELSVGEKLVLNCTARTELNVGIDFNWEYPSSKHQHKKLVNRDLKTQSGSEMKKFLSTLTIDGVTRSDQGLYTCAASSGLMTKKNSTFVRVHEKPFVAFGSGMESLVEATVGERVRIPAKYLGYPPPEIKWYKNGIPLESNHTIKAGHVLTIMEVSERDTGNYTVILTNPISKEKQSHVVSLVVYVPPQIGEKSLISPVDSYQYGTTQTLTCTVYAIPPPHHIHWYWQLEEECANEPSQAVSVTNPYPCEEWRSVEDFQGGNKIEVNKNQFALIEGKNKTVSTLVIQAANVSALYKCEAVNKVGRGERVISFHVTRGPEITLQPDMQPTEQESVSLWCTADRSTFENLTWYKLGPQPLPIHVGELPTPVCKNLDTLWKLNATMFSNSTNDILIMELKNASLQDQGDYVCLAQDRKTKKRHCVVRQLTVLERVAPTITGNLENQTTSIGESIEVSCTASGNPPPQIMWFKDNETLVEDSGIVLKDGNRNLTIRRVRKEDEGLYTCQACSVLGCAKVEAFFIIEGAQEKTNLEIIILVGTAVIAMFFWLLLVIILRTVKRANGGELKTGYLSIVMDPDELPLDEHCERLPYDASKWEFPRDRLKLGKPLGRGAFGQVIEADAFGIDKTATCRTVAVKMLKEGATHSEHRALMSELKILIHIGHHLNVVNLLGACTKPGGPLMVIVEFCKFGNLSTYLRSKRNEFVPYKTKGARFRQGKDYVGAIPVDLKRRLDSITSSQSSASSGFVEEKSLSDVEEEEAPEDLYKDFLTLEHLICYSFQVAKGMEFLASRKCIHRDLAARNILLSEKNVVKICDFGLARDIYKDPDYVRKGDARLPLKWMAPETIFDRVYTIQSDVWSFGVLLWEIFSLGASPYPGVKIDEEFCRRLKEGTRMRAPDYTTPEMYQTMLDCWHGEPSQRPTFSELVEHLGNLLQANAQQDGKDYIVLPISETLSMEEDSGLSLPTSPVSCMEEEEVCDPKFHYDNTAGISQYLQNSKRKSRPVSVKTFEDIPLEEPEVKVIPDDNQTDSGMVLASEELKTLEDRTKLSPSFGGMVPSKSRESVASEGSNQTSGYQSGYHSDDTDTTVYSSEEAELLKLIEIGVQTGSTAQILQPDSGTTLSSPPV
Procedure: HUVECs were seeded at 15,000 cells/well and incubated with 100 μL of sample supernatant (at 1:50 dilution) for one hour at 4° C. The positive control was goat anti-KDR antibody (R&D Systems, Inc.), and negative controls included irrelevant hybridoma supernatants at the same dilution. The cells were then washed and incubated with Cy5-conjugated goat anti-human antibody at 5 μg/mL and 7-Amino-Actinomycin D (7AAD) at 5 μg/mL for 15 minutes at 4° C. Bound KDR was detected using FACS analysis.

In order of falling “FACS Geometric Mean” value:
1. B7  33
2. B6  32
3. B9  32
4. B4  29
5. B8  26
6. B1  25
7. B5  21
8. B2  18
9. B3  14

What follows are binders tested against T2, human KDR (VEGFR2) on cells (assay: cell-based or functional assay).

In order of falling “HUVEC survival (n = 1) 1:10 dilution of supernatant (RLU)” value:
1. B6  47800 RLU
2. B8  44800 RLU
3. B9  44100 RLU
4. B4  43800 RLU
5. B1  17300 RLU
6. B5  14800 RLU
7. B7  14600 RLU
8. B2  10200 RLU
9. B3  8870 RLU

In order of falling “HUVEC survival (n = 2) 1:20 dilution of supernatant (RLU)” value:
1. B9  24000 RLU
2. B4  10300 RLU
3. B6  10200 RLU
4. B7  9180 RLU
5. B8  8570 RLU
6. B1  4560 RLU
7. B3  2670 RLU
8. B5  1350 RLU
9. B2  247 RLU

Target: T2, human KDR (VEGFR2) on cells
Test: cell-based or functional assay
Remark: another data set of the same source

In order of falling “% Inhibition of VEGF-E-mediated pTyr Activity” value:
1. B2  70%
2. B3  67%
3. B1  60%
4. B5  56%
5. B7  51%
6. B9  45%
7. B6  24%
8. B8  17%
9. B4  6%

Each binder was assayed against T3, mouse KDR (Flk-1)/Fc (Cat. #443-KD/CF, R&D Systems) (mouse, UniProt P35918 20-762) (assay: ELISA, plate-coated Flk-1/Fc 500 ng/mL, hybridoma supernatant 1:5).
T3 construct: Bought reagent; also called mouse VEGFR2; KDR mouse ortholog; Fc part of the bought chimera not given
T3 sequence (P35918 20-762): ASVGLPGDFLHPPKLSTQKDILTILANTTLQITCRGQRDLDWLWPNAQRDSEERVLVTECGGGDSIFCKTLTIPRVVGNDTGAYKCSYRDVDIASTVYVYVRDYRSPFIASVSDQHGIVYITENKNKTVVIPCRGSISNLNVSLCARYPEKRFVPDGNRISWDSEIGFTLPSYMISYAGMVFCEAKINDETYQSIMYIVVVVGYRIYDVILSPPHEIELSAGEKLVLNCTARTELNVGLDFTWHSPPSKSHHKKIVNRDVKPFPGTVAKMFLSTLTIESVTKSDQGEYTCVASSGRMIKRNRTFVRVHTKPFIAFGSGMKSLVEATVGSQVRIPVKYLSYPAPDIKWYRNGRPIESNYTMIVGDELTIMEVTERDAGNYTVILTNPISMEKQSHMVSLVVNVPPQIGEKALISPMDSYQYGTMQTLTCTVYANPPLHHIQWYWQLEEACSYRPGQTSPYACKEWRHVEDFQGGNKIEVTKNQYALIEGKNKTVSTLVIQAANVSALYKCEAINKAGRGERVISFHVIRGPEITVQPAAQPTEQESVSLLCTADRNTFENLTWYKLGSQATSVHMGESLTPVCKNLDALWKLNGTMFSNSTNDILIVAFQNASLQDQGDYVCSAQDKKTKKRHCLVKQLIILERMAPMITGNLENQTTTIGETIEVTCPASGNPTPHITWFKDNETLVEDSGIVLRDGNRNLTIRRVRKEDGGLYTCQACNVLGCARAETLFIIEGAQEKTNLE
Procedure: The cross-reactivity of antibodies in the hybridoma supernatant was tested against KDR mouse ortholog (mouse VEGFR2, or Flk-1) and human VEGFR1 (Flt-1). Cross-reactivity was measured using an ELISA based assay.
After washing and blocking the plates, the antibody-containing supernatants were added (at 1:5 dilution) into the coated wells and incubated for one hour at room temperature. The plates were then incubated with mouse anti-human IgG 2, 3 and 4 and subsequently with goat anti-mouse IgG Fc POD, to detect and measure bound antibodies.

In order of rising “OD (450 nm)” value:
1. B6  0.055 OD450
2. B5  0.067 OD450
3. B8  0.083 OD450
4. B9  0.093 OD450
5. B7  0.098 OD450
6. B4  0.139 OD450

Target: T2, human KDR (VEGFR2) on cells
Test: cell-based or functional assay
Remark: another data set of the same source

In order of rising “% Inhibition of VEGF165-mediated pTyr Activity, Average” value:
1. B7  46%
2. B1  62%
3. B4  70%
4. B5  70%
5. B6  71%
6. B2  72%
7. B3  72%
8. B8  72%
9. B9  78%

In order of rising “% Inhibition of VEGF165-mediated pTyr Activity, n = 1” value:
1. B7  55%
2. B1  60%
3. B3  71%
4. B4  80%
5. B8  84%
6. B2  85%
7. B6  89%
8. B9  90%
9. B5  98%

In order of falling “% Inhibition of VEGF165-mediated pTyr Activity, n = 2” value:
1. B3  77%
2. B8  75%
3. B4  70%
4. B1  68%
5. B6  67%
6. B9  67%
7. B2  65%
8. B5  60%
9. B7  45%

In order of rising “% Inhibition of VEGF165-mediated pTyr Activity, n = 3” value:
1. B7  38%
2. B5  52%
3. B8  57%
4. B6  58%
5. B1  59%
6. B4  61%
7. B2  68%
8. B3  68%
9. B9  77%

These binders were tested against T4, soluble KDR (VEGF Receptor 2 D1-7, Cat. #676490, Calbiochem) (human, UniProt P35968 20-764) (assay: ELISA, plate-coated soluble KDR 250 ng/mL, hybridoma supernatant 1:5).
T4 construct: extracellular domain; Bought reagent; also called soluble human KDR; immobilized soluble KDR
T4 sequence (P35968 20-764): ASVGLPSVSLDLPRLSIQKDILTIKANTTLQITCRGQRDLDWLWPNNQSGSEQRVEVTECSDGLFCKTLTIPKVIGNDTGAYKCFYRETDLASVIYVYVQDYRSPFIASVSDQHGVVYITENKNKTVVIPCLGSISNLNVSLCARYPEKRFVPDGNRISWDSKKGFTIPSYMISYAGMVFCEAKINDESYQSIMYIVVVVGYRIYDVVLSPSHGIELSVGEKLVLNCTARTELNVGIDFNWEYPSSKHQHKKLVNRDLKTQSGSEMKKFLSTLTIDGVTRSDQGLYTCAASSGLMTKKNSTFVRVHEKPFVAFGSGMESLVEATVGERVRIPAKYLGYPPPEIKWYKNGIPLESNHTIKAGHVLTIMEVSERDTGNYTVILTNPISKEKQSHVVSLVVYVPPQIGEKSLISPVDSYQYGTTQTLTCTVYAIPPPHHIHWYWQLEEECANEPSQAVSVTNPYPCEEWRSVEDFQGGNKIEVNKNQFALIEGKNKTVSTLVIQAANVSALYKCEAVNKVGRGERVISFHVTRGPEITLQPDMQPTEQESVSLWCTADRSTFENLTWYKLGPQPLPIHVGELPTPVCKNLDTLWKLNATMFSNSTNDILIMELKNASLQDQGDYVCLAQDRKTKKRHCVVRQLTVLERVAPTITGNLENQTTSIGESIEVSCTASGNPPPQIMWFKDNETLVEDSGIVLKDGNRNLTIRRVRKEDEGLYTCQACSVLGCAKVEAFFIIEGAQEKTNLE
Procedure: To screen by binding to immobilized soluble KDR, plates were coated with KDR (Calbiochem) at 250 ng/mL overnight at 4° C. After blocking and washing the coated plates, the candidate hybridoma supernatants (at 1:5 dilution) were transferred to the plates and incubated for one hour at room temperature. The plates were then washed and incubated with secondary antibody (at 1:4000 dilution) for one hour at room temperature.

In order of falling “KDR OD(450 nm)” value:
1. B6  6 OD450
2. B1  3.75 OD450
3. B4  1.65 OD450
4. B9  1.22 OD450
5. B3  0.967 OD450
6. B8  0.924 OD450
7. B2  0.62 OD450
8. B7  0.55 OD450
9. B5  0.454 OD450
